Experimental data: publication PMC6995573

Molecular target: Human ornithine decarboxylase (human) (UniProt P11926)
Assay: not given

Human ornithine decarboxylase (human), sequence (P11926 2-421): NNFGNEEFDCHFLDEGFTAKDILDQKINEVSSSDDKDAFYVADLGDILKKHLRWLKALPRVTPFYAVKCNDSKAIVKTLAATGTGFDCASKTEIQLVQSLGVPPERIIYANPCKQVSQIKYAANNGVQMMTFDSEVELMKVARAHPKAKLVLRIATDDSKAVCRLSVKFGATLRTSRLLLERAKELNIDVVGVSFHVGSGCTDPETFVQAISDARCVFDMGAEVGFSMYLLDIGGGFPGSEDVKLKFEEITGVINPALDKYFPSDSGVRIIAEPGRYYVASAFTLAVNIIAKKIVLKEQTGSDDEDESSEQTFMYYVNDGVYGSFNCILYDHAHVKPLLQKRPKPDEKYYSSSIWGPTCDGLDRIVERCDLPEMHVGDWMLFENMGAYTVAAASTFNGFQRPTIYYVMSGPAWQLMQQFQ

IC50 of inhibition of ODC enzyme activity by AZ [nM]	Substance
670	AZ3_A98D (natural protein)
2050	AZ3_D149P (natural protein)
780	AZ3_G99D (natural protein)
1380	AZ3_N168R (natural protein)
670	AZ3_N178K (natural protein)
480	AZ3_Q150E (natural protein)
1230	AZ3_R137G (natural protein)
1210	AZ3_T106E (natural protein)
980	AZ3_Y145G (natural protein)

Second part, the substance before the results:

Substance	IC50 of inhibition of ODC enzyme activity by AZ [nM]
AZ3_D112K (natural protein)	550
AZ3_D136G (natural protein)	720
AZ3_D179N (natural protein)	450
AZ3_H129N (natural protein)	670
AZ3_K166Q (natural protein)	420
AZ3_N100R (natural protein)	660
AZ3_N175C (natural protein)	650
AZ3_Q177H (natural protein)	1340
AZ3_R138S (natural protein)	810
AZ3_S124D (natural protein)	500
AZ3_S127R (natural protein)	1020
AZ3_S171H (natural protein)	430
AZ3_T126K (natural protein)	700

Molecular target: Human ornithine decarboxylase (human) (UniProt P11926)
Assay: AUC; sedimentation velocity, 20 °C, 30 mM Tris-HCl pH 7.4, 25 mM NaCl; ODC fixed at 0.3 mg/mL, AZ 0.02-0.19 mg/mL (AZ/ODC molar ratio 0.25 to 3); all data sets fitted to the AB hetero-association model in SEDPHAT

Kd [nM]	Substance
500	AZ3_S124D/Q150E/K166Q/D179N (natural protein)
140	AZ3_S124D/Q150E/K166Q/S171H/D179N (natural protein)

Molecular target: Human ornithine decarboxylase (human) (UniProt P11926)
Assay: not given
Remark: another data set of the same source

IC50 of inhibition of ODC enzyme activity by AZ [nM]	Substance
250	AZ3_S124D/Q150E/K166Q/D179N (natural protein)
290	AZ3_S124D/Q150E/K166Q/S171H/D179N (natural protein)
